Assay results taken from PMC5353707.
Blank lines part the entries; values can stand above or below the substance they belong to.

Columns and labels:
[1] = target: fragment TM456 of human thrombomodulin (soluble EGF456 domains) (human) (UniProt P07204)
[2] = target: Full-length rabbit thrombomodulin (TM) (rabbit)
[3] = target: EGF456 (TM456) component of the thrombin-thrombomodulin fusion proteins (human) (UniProt P07204)
[4] = target: fragment TM456 of human thrombomodulin (soluble EGF456 domains) (human) (UniProt P07204); assay: SPR; biotinyl-TM456 on a neutravidin-coated CM5 chip (177 RU); thrombin injected at 30 μl/min, contact and dissociation 120 sec; 25 °C; Biacore-S200; TM456 loaded in 10 mM HEPES pH 7.4, 150 mM NaCl, 2.5 mM Ca2+, 0.05% Tween20; Kd from response units at the steady state

kcat/KM of protein C activation by thrombin with 500 nM TM456 [1]: 80000 M⁻¹ s⁻¹
kcat/KM of protein C activation by thrombin with TM [2]: 230000 M⁻¹ s⁻¹
kcat/KM of cleavage of the PAR1 fragment by FP7 (thrombin fused to TM456, 7-residue linker) [3]: 5.8e+06 M⁻¹ s⁻¹
kcat/KM of cleavage of the PAR1 fragment by FP17 (thrombin fused to TM456, 17-residue linker) [3]: 2e+06 M⁻¹ s⁻¹
kcat/KM of cleavage of the PAR1 fragment by FP31 (thrombin fused to TM456, 31-residue linker) [3]: 300000 M⁻¹ s⁻¹
kcat/KM of cleavage of the PAR1 fragment by FP41 (thrombin fused to TM456, 41-residue linker) [3]: 950000 M⁻¹ s⁻¹
kcat/KM of cleavage of the PAR1 fragment by FP55 (thrombin fused to TM456, 55-residue linker) [3]: 2.3e+06 M⁻¹ s⁻¹
kcat/KM of cleavage of the PAR1 fragment by FP69 (thrombin fused to TM456, 69-residue linker) [3]: 1.4e+07 M⁻¹ s⁻¹
kcat/KM of fibrinopeptide A release by FP7 (thrombin fused to TM456, 7-residue linker) [3]: 6.7e+06 M⁻¹ s⁻¹
kcat/KM of fibrinopeptide A release by FP17 (thrombin fused to TM456, 17-residue linker) [3]: 1.55e+06 M⁻¹ s⁻¹
kcat/KM of fibrinopeptide A release by FP31 (thrombin fused to TM456, 31-residue linker) [3]: 300000 M⁻¹ s⁻¹
kcat/KM of fibrinopeptide A release by FP41 (thrombin fused to TM456, 41-residue linker) [3]: 600000 M⁻¹ s⁻¹
kcat/KM of fibrinopeptide A release by FP55 (thrombin fused to TM456, 55-residue linker) [3]: 1.3e+06 M⁻¹ s⁻¹
kcat/KM of fibrinopeptide A release by FP69 (thrombin fused to TM456, 69-residue linker) [3]: 1.1e+07 M⁻¹ s⁻¹
kcat/KM of protein C activation by FP7 (thrombin fused to TM456, 7-residue linker) [3]: 1100 M⁻¹ s⁻¹
kcat/KM of protein C activation by FP17 (thrombin fused to TM456, 17-residue linker) [3]: 6100 M⁻¹ s⁻¹
kcat/KM of protein C activation by FP31 (thrombin fused to TM456, 31-residue linker) [3]: 85000 M⁻¹ s⁻¹
kcat/KM of protein C activation by FP41 (thrombin fused to TM456, 41-residue linker) [3]: 107000 M⁻¹ s⁻¹
kcat/KM of protein C activation by FP55 (thrombin fused to TM456, 55-residue linker) [3]: 120000 M⁻¹ s⁻¹
kcat/KM of protein C activation by FP69 (thrombin fused to TM456, 69-residue linker) [3]: 74000 M⁻¹ s⁻¹
Kd [4]: 18 nM
Substance: thrombin wild-type (enzyme)

kcat/KM of protein C activation by thrombin W215A with 500 nM TM456 [1]: 3200 M⁻¹ s⁻¹
kcat/KM of protein C activation by FP31W215A (thrombin W215A fused to EGF456, 31-residue linker) [3]: 3300 M⁻¹ s⁻¹
Kd [4]: 23 nM
Substance: thrombin mutant W215A (enzyme)

kcat/KM of protein C activation by FP31WE (thrombin WE fused to EGF456, 31-residue linker) [3]: 550 M⁻¹ s⁻¹
Substance: thrombin W215A/E217A (WE) component of the fusion protein FP31WE (domain or fragment)

kcat/KM of protein C activation by thrombin WE with 500 nM TM456 [1]: 380 M⁻¹ s⁻¹
Kd [4]: 31 nM
Substance: thrombin double mutant W215A/E217A (WE) (enzyme)
